Test results as given in patent US20250011380A1 (published 2025).
“And” between values parts separate entries of the source, which are not always exact repeats. Identical values can stand only once.

Molecular target: TGF-β1 (UniProt P01137 279-390)
Test: cell-based or functional assay

TGF-β1, sequence (P01137 279-390 limits assumed): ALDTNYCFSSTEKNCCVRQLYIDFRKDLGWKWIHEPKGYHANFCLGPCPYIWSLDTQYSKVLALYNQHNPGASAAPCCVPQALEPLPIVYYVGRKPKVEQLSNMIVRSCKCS

- IC50, HEK-Blue TGF-β cells, 0.1 nM TGF-β1: 0.47 nM
- IC50, HEK-Blue TGFβ reporter cells, 0.1 nM TGFβ1: 0.461 nM and 0.559 nM
- fold lower TGF-β1 blocking activity than TGFRt15-TGFRs or TGFRt15*-TGFRs: ~10 fold
B1: human recombinant TGFβRII/Fc (Fc fusion, UniProt P37173 23-159, looked up, not shown: a dimerising Fc or GST)
chain: TIPPHVQKSVNNDMIVTDNNGAVKFPQLCKFCDVRFSTCDNQKSCMSNCSITSICEKPQEVCVAVWRKNDENITLETVCHDPKLPYHDFILEDAASPKCIMKEKKKPGETFFMCSCSSDECNDNIIFSEEYNTSNPD
